Measurements: patent US20170008955A1 (CNJ, published 2017)

T1: Ovalbumin (UniProt P01012 2-386)
T1 sequence (looked up): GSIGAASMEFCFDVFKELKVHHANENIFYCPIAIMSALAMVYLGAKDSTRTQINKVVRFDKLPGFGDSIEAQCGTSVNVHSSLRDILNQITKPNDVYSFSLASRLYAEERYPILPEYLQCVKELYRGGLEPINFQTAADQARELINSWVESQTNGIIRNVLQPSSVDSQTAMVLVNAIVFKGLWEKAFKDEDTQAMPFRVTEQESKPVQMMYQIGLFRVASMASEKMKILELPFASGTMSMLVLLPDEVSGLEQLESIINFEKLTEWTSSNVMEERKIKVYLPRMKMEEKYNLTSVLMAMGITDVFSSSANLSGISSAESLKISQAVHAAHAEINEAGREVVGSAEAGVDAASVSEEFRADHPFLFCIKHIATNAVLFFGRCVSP


Legend:
Ovalbumin = target: T1, Ovalbumin; assay: Western blot of BSA, BSA-cSNK and ovalbumin probed with hu5E3-IgG1
Aβ42 oligomers = target: T2, Aβ42 oligomers (UniProt P05067 672-713); assay: Biacore (SPR), Aβ oligomer preparation AβO1' (HQ AβO1'); lower end of the range
T2 construct: domain: Aβ42; immobilized preparation containing monomers, low and high molecular weight oligomers; also called Amyloid beta oligomers; Aβ oligomers
T2 sequence (P05067 672-713 limits assumed): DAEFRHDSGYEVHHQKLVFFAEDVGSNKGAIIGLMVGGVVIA
Method: Using a Biacore™ 3000, Aβ42 oligomers were immobilized (containing monomers, low and high molecular weight oligomers) and BSA (reference surface) on 4 separate flow cells of a biosensorchip. Murine 5E3 or humanized 5E3 IgG1, IgG2, and IgG4 were then diluted, sequentially injected over the different immobilized peptides and antibody binding monitored in real time. Binding data was collected by sequentially injecting buffer blanks, 1/10 dilutions of m5E3 or 1 uM dilutions of hu5E3 control over separate flow cells immobilized with BSA or Aβ42 oligomer on another biosensor chip at a flow rate of 10 μl/minute. Association was allowed for 200 seconds, followed by dissociation for 500 seconds and binding responses collected 10 seconds before the end of the […]. All binding responses were double-referenced by subtracting buffer blanks and BSA reference surface binding.
Results: As shown in FIG. 9A and FIG. 9B, the humanized 5E3 isotypes bound to the Aβ42 oligomer preparation. Affinity constants were determined for hu5E3 IgG1 Aβ42 oligomer preparations.

cSNK:BSA conjugate [1] = target: T3, cSNK:BSA conjugate (bovine, head-to-tail cyclized; conjugated to BSA carrier); assay: BLI (Octet), KD1; unlabelled reference row, taken as hu5E3; unlabelled reference row at the top of the table
T3 construct: also called BSA-cSNK
T3 sequence (P02769 25-607 limits assumed): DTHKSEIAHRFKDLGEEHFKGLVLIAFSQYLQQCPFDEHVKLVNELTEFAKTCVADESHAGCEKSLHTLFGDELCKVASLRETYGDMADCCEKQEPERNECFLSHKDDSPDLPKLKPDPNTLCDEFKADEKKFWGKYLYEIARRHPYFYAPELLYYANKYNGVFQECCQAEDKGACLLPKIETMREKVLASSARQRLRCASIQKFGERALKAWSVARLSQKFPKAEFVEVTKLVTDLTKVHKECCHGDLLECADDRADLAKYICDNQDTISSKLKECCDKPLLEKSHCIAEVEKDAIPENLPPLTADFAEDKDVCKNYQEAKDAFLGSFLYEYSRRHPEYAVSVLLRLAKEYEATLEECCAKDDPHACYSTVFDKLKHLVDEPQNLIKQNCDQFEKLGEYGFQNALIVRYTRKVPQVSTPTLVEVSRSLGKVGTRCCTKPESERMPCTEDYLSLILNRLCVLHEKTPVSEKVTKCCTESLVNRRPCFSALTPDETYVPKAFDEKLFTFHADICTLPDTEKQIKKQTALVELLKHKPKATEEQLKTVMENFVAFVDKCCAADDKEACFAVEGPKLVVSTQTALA

cSNK:BSA conjugate [2] = target: T3, cSNK:BSA conjugate; assay: BLI 2:1 fit, site 1 (KD1); 50 nM row
Method: (§1) Biolayer interferometry (Octet […], ForteBio) was used to qualitatively/quantitatively assess the interactions between humanized versions of 5E3 and cSNK:BSA conjugate. […] MAbs were loaded onto sensors and then washed in PBST. Each sensor was associated with one of several cSNK:BSA standards (100 nM to 0 nM) and then washed in PBST. Data was processed statistically using ForteBio Data Analysis software to determine the strength of antigen-antibody binding (KD). For each mAb analyzed, a 2:1 model provided the “best fit”.

cSNK:BSA conjugate [3] = target: T3, cSNK:BSA conjugate; assay: BLI 2:1 fit, site 1 (KD1); 1.56 nM row
Method: as §1

cSNK:BSA conjugate [4] = target: T3, cSNK:BSA conjugate; assay: BLI 2:1 fit, site 1 (KD1); 100 nM row
Method: as §1

binding result (Ovalbumin) | Kd (Aβ42 oligomers) [nM] | Kd (cSNK:BSA conjugate [1]) [nM] | Kd (cSNK:BSA conjugate [2]) [nM] | Kd (cSNK:BSA conjugate [3]) [nM] | Kd (cSNK:BSA conjugate [4]) [nM] | Binder
no binding | ≥ 34000 | 6.27 | – | – | – | hu5E3-IgG1 (antibody, V domains shown, human IgG1/kappa; also called humanized 5E3 IgG1; IHA variant) VH: QVQLQQSGPEVKKPGASVKISCKASGYIFTSYYIQWVIHAPGQGLEWIGWIYPGNVNTKYNEKFKGKATLTADKSSSTAYMELSSLTSEDTAVYFCARMDYEAHYWGQGTTVTVSS VL: DIQMTQSPSSLSASVGDRVTITCRASQEISGYLTWLQQKPEGAIKRLIYAASTLDSGVPKRFSGSRSGSDYSLTISSLQPEDFATYNCLQYANYPRTFGGGTKLEIK
– | – | – | 0.557 | 0.557 | 0.557 | rehu5E3-IgG4 (antibody, V domains shown, human IgG4/kappa; also called IgG4 rehu version) VH: QVQLQQSGPEVVKPGASVKISCKASGYIFTSYYIQWVIHAPGQGLEWIGWIYPGNVNTKYNEKFKGKATLTADKSSSTAYMELSSLRSEDSAVYFCARMDYEAHYWGQGTLVTVSS VL: DIQMTQSPSSLSASLGDRVTLTCRASQEISGYLTWLQQKPEKAIKRLIYAASTLDSGVPKRFSGSRSGSDYTLTISSLQPEDFADYNCLQYANYPRTFGGGTKLEIK
